B1: Twist-related protein 1 (Homo sapiens), Q15672 (parent)
chain: MMQDVSSSPVSPADDSLSNSEEEPDRQQPPSGKRGGRKRRSSRRSAGGGAGPGGAAGGGVGGGDEPGSPAQGKRGKKSAGCGGGGGAGGGGGSSSGGGSPQSYEELQTQRVMANVRERQRTQSLNEAFAALRKIIPTLPSDKLSKIQTLKLAARYIDFLYQVLQSDELDSKMASCSYVAHERLSYAFSVWRMEGAWSMSASH

One assay covers variants of B1. As to conditions: with TCF3, P15923-1.
TCF3, P15923-1, sequence (P15923 whole entry): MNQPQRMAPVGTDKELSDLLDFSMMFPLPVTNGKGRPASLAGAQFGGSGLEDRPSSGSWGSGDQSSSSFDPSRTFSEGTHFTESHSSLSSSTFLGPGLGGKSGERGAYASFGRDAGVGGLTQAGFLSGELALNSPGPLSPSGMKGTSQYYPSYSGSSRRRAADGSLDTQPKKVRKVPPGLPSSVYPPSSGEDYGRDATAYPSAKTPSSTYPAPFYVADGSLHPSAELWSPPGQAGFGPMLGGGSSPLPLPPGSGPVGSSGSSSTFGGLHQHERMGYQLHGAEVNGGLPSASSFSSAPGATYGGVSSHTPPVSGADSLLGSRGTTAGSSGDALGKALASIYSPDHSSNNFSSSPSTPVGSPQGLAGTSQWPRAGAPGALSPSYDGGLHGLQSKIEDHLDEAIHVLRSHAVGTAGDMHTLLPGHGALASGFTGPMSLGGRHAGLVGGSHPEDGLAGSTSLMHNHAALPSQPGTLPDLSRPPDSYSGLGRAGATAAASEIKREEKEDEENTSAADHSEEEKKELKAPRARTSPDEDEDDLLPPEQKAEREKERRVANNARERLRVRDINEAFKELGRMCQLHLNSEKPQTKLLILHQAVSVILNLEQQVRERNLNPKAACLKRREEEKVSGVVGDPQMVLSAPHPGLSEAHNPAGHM
In the case of K145E, the “effect of a mutation on the interaction” value is “decreasing interaction strength”. On the same count and under the same terms, the same measure for R118C: “with no effect”; for S144R: “with no effect”.

In another assay the parent is B1. The settings on record: with TCF3, P15923-1. The source holds these as a separate data set.
As for K145E, the “effect of a mutation on the interaction” value is listed as “with no effect”.

(Values after IntAct's records for PubMed 11248247.)
